This passage reports Km of nucleosome remodeling (enzyme 10-640 nM), against ALC1 (1-673) results from publication PMC8249414.

The experiment addresses nucleosome core particle with 167 bp '601' DNA (167NCP).

For “ALC1 (1-673) D381A mutant (from UniProt Q86WJ1 1-673) (domain or fragment)”, the Km of nucleosome remodeling (enzyme 10-640 nM), against ALC1 (1-673) was determined as 2 fold.
